Tested on: Escherichia coli TOP10
Assay: shrunken log2 fold change of peptide-encoding DNA abundance (4.5 h post-induction vs induction); higher = less antimicrobial activity (less host growth inhibition)
Settings: time post-induction: 4.5 h; library: site-saturation at positions 5, 18, 19, 20
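Note: peptides expressed intracellularly from a pBAD plasmid library in pooled LB shake-flask culture, induced with 0.3% L-arabinose, DNA abundance read by NGS, three biological replicates, DESeq2 with apeglm shrinkage.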

| Sequence | shrunken log2 fold change |
| --- | --- |
| RRIRVRPPRLPRPRPRPNPMPRP | 0.0227 |
| RRIRVRPPRLPRPRPRPNREPRP | -0.0873 |
| RRIRVRPPRLPRPRPRPNRHPRP | -0.195 |
| RRIRVRPPRLPRPRPRPNSKPRP | -0.506 |
| RRIRVRPPRLPRPRPRPNTGPRP | -0.112 |
| RRIRVRPPRLPRPRPRPNTTPRP | -0.227 |
| RRIRVRPPRLPRPRPRPNTWPRP | -0.197 |
| RRIRVRPPRLPRPRPRPNVDPRP | -0.0826 |
| RRIRVRPPRLPRPRPRPNVLPRP | 0.0178 |
| RRIRVRPPRLPRPRPRPNVMPRP | -0.173 |
| RRIRVRPPRLPRPRPRPNWAPRP | -0.0443 |
| RRIRVRPPRLPRPRPRPPCYPRP | -0.356 |
| RRIRVRPPRLPRPRPRPPDLPRP | 0.195 |
| RRIRVRPPRLPRPRPRPPDQPRP | 0.124 |
| RRIRVRPPRLPRPRPRPPEDPRP | 0.425 |
| RRIRVRPPRLPRPRPRPPETPRP | -0.0362 |
| RRIRVRPPRLPRPRPRPPFYPRP | -0.0377 |
| RRIRVRPPRLPRPRPRPPGGPRP | 0.598 |
| RRIRVRPPRLPRPRPRPPGYPRP | 0.0333 |
| RRIRVRPPRLPRPRPRPPHKPRP | 0.274 |
| RRIRVRPPRLPRPRPRPPHPPRP | 0.261 |
| RRIRVRPPRLPRPRPRPPHYPRP | 0.1 |

| Sequence | shrunken log2 fold change |
| --- | --- |
| RRIRVRPPRLPRPRPRPPICPRP | -0.131 |
| RRIRVRPPRLPRPRPRPPKSPRP | 0.1 |
| RRIRVRPPRLPRPRPRPPLHPRP | 0.128 |
| RRIRVRPPRLPRPRPRPPLMPRP | 0.175 |
| RRIRVRPPRLPRPRPRPPLNPRP | -0.098 |
| RRIRVRPPRLPRPRPRPPMYPRP | -0.366 |
| RRIRVRPPRLPRPRPRPPPCPRP | 0.358 |
| RRIRVRPPRLPRPRPRPPPRPRP | 1.03 |
| RRIRVRPPRLPRPRPRPPQVPRP | 0.377 |
| RRIRVRPPRLPRPRPRPPRGPRP | 0.665 |
| RRIRVRPPRLPRPRPRPPSEPRP | -0.124 |
| RRIRVRPPRLPRPRPRPPSVPRP | 0.129 |
| RRIRVRPPRLPRPRPRPPTFPRP | 0.0282 |
| RRIRVRPPRLPRPRPRPPVHPRP | -0.0509 |
| RRIRVRPPRLPRPRPRPPVMPRP | -0.105 |
| RRIRVRPPRLPRPRPRPPYKPRP | -0.371 |
| RRIRVRPPRLPRPRPRPQASPRP | 0.322 |
| RRIRVRPPRLPRPRPRPQCNPRP | -0.449 |
| RRIRVRPPRLPRPRPRPQCRPRP | -0.167 |
| RRIRVRPPRLPRPRPRPQDVPRP | -0.033 |
| RRIRVRPPRLPRPRPRPQEQPRP | 0.0925 |
| RRIRVRPPRLPRPRPRPQESPRP | -0.0491 |

| Sequence | shrunken log2 fold change |
| --- | --- |
| RRIRVRPPRLPRPRPRPQEYPRP | 0.0203 |
| RRIRVRPPRLPRPRPRPQFFPRP | -0.0611 |
| RRIRVRPPRLPRPRPRPQGKPRP | 0.00549 |
| RRIRVRPPRLPRPRPRPQHKPRP | -0.483 |
| RRIRVRPPRLPRPRPRPQHTPRP | -0.0855 |
| RRIRVRPPRLPRPRPRPQICPRP | -0.185 |
| RRIRVRPPRLPRPRPRPQIIPRP | -0.299 |
| RRIRVRPPRLPRPRPRPQKQPRP | -0.376 |
| RRIRVRPPRLPRPRPRPQLGPRP | -0.0234 |
| RRIRVRPPRLPRPRPRPQLIPRP | -0.334 |
| RRIRVRPPRLPRPRPRPQLKPRP | -0.177 |
| RRIRVRPPRLPRPRPRPQMDPRP | -0.297 |
| RRIRVRPPRLPRPRPRPQMFPRP | -0.0716 |
| RRIRVRPPRLPRPRPRPQMYPRP | -0.436 |
| RRIRVRPPRLPRPRPRPQNSPRP | -0.802 |
| RRIRVRPPRLPRPRPRPQNWPRP | 0.0353 |
| RRIRVRPPRLPRPRPRPQNYPRP | -0.285 |
| RRIRVRPPRLPRPRPRPQQFPRP | 0.0811 |
| RRIRVRPPRLPRPRPRPQQGPRP | 0.403 |
| RRIRVRPPRLPRPRPRPQRCPRP | 0.00942 |
| RRIRVRPPRLPRPRPRPQRKPRP | 0.0451 |
| RRIRVRPPRLPRPRPRPQRSPRP | -0.431 |

| Sequence | shrunken log2 fold change |
| --- | --- |
| RRIRVRPPRLPRPRPRPQSGPRP | -0.0607 |
| RRIRVRPPRLPRPRPRPQSMPRP | 0.229 |
| RRIRVRPPRLPRPRPRPQTVPRP | -0.0217 |
| RRIRVRPPRLPRPRPRPQVCPRP | -0.0138 |
| RRIRVRPPRLPRPRPRPQVRPRP | 0.0179 |
| RRIRVRPPRLPRPRPRPQYPPRP | -0.101 |
| RRIRVRPPRLPRPRPRPQYRPRP | -0.134 |
| RRIRVRPPRLPRPRPRPRAWPRP | 0.086 |
| RRIRVRPPRLPRPRPRPRCCPRP | 0.201 |
| RRIRVRPPRLPRPRPRPRCDPRP | -0.0186 |
| RRIRVRPPRLPRPRPRPRCSPRP | -0.212 |
| RRIRVRPPRLPRPRPRPRDTPRP | -0.0483 |
| RRIRVRPPRLPRPRPRPRECPRP | 0.175 |
| RRIRVRPPRLPRPRPRPRFDPRP | 0.048 |
| RRIRVRPPRLPRPRPRPRFLPRP | -0.247 |
| RRIRVRPPRLPRPRPRPRFSPRP | -0.17 |
| RRIRVRPPRLPRPRPRPRFYPRP | 0.112 |
| RRIRVRPPRLPRPRPRPRGCPRP | 0.374 |
| RRIRVRPPRLPRPRPRPRIPPRP | 0.183 |
| RRIRVRPPRLPRPRPRPRISPRP | -0.187 |
| RRIRVRPPRLPRPRPRPRIWPRP | 0.468 |
| RRIRVRPPRLPRPRPRPRKCPRP | -0.0338 |

| Sequence | shrunken log2 fold change |
| --- | --- |
| RRIRVRPPRLPRPRPRPRLCPRP | 0.564 |
| RRIRVRPPRLPRPRPRPRLPPRP | 0.636 |
| RRIRVRPPRLPRPRPRPRMTPRP | 0.265 |
| RRIRVRPPRLPRPRPRPRPQPRP | 0.365 |
| RRIRVRPPRLPRPRPRPRQFPRP | 0.238 |
| RRIRVRPPRLPRPRPRPRRFPRP | 0.309 |
| RRIRVRPPRLPRPRPRPRRKPRP | 0.0637 |
| RRIRVRPPRLPRPRPRPRSSPRP | -0.244 |
| RRIRVRPPRLPRPRPRPRVIPRP | -0.0308 |
| RRIRVRPPRLPRPRPRPRVVPRP | 0.2 |
| RRIRVRPPRLPRPRPRPRWRPRP | 0.587 |
| RRIRVRPPRLPRPRPRPRYRPRP | -0.0212 |
| RRIRVRPPRLPRPRPRPSCKPRP | -0.207 |
| RRIRVRPPRLPRPRPRPSDNPRP | -0.878 |
| RRIRVRPPRLPRPRPRPSDTPRP | -0.54 |
| RRIRVRPPRLPRPRPRPSKGPRP | -0.276 |
| RRIRVRPPRLPRPRPRPSKQPRP | -0.201 |
| RRIRVRPPRLPRPRPRPSMKPRP | -0.363 |
| RRIRVRPPRLPRPRPRPSNLPRP | -0.586 |
| RRIRVRPPRLPRPRPRPSNSPRP | -0.826 |
| RRIRVRPPRLPRPRPRPSNTPRP | -0.417 |
